Target: Ub-Pro-βgal (proteolytic test substrate, ubiquitinated in yeast cells) (UniProt P00722 1-1024 = β-galactosidase, ubiquitinated in the cells (multi-Ub chains; sites not stated))
Experiment: cell-based or functional assay

Ub-Pro-βgal (proteolytic test substrate, ubiquitinated in yeast cells), sequence (P00722 whole entry): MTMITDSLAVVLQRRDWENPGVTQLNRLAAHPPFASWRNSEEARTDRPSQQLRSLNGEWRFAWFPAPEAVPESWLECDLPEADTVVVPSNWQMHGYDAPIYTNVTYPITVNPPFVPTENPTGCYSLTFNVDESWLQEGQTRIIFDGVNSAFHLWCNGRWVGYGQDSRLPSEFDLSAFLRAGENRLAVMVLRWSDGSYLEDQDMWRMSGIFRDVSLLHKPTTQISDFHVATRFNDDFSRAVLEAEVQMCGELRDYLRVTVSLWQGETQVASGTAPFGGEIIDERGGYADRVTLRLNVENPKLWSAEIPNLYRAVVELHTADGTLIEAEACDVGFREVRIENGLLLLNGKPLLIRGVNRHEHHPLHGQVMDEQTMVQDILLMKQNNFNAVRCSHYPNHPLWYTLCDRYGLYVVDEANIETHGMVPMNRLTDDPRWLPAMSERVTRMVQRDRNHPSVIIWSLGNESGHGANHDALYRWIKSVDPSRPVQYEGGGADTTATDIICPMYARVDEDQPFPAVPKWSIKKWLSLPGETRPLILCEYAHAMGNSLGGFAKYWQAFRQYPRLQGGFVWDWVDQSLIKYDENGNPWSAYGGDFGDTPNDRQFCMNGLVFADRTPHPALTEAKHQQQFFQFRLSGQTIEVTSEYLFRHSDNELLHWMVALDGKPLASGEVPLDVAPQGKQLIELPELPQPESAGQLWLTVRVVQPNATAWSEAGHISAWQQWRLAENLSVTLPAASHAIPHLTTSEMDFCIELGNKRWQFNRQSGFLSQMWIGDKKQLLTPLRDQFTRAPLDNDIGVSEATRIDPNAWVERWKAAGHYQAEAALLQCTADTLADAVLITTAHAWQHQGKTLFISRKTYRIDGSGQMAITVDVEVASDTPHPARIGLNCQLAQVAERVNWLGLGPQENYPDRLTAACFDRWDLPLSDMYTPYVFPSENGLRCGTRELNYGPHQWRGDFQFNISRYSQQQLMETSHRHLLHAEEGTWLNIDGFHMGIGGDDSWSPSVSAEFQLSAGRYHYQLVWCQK

B1: Flag-Rad23 (yeast Rad23 with an amino-terminal Flag epitope) (other, yeast (Saccharomyces cerevisiae), UniProt P32628 1-398, looked up, not shown: small tags and cut ends)
chain: MVSLTFKNFKKEKVPLDLEPSNTILETKTKLAQSISCEESQIKLIYSGKVLQDSKTVSECGLKDGDQVVFMVSQKKSTKTKVTEPPIAPESATTPGRENSTEASPSTDASAAPAATAPEGSQPQEEQTATTERTESASTPGFVVGTERNETIERIMEMGYQREEVERALRAAFNNPDRAVEYLLMGIPENLRQPEPQQQTAAAAEQPSTAATTAEQPAEDDLFAQAAQGGNASSGALGTTGGATDAAQGGPPGSIGLTVEDLLSLRQVVSGNPEALAPLLENISARYPQLREHIMANPEVFVSMLLEAVGDNMQDVMEGADDMVEGEDIEVTGEAAAAGLGQGEGEGSFQVDYTPEDDQAISRLCELGFERDLVIQVYFACDKNEEAAANILFSDHAD
- t1/2 of Ub-Pro-βgal by pulse-chase on overexpression of Flag-Rad23 in yeast: > 100 min

B2: Flag-rad23^uba1uba2 (yeast Rad23 with mutations in both UBA domains, amino-terminal Flag epitope) (other, yeast (Saccharomyces cerevisiae), UniProt P32628 1-398, looked up, not shown: small tags and cut ends)
chain: MVSLTFKNFKKEKVPLDLEPSNTILETKTKLAQSISCEESQIKLIYSGKVLQDSKTVSECGLKDGDQVVFMVSQKKSTKTKVTEPPIAPESATTPGRENSTEASPSTDASAAPAATAPEGSQPQEEQTATTERTESASTPGFVVGTERNETIERIMEMGYQREEVERALRAAFNNPDRAVEYALMGIPENLRQPEPQQQTAAAAEQPSTAATTAEQPAEDDLFAQAAQGGNASSGALGTTGGATDAAQGGPPGSIGLTVEDLLSLRQVVSGNPEALAPLLENISARYPQLREHIMANPEVFVSMLLEAVGDNMQDVMEGADDMVEGEDIEVTGEAAAAGLGQGEGEGSFQVDYTPEDDQAISRLCELGFERDLVIQVYFACDKNEEAAANIAFSDHAD
- t1/2 of Ub-Pro-βgal by pulse-chase on expression of Flag-rad23^uba1uba2 in yeast: ~10 min
